Laboratory results reported in patent US20210061891A1.

How the values were obtained:
Test in all cases: ELISA on streptavidin-immobilized biotinylated 15mer peptides; area under the signal vs antibody concentration curve
[1] = target: residue mutated to A: T
[2] = target: residue mutated to A: N
[3] = target: residue mutated to A: I

| percent of binding to the natural peptide (AUC) [1] [%] | Binder | further results |
| --- | --- | --- |
| 4 | Ab7960/293i (antibody, V domains shown) VH: LVESGGGVVQPGKSLRLSCVASGFSFSTYGMHWVRQAPGKGLEWVAVMSFDGKTKYYADSVKGRFTISRDNPKNTLYLQMNSLRSEDTAVYYCAKGGAAAAVFDSWGPGILLTVSS VL: MTQSPNSLAVSLGGRATINCKASQSILYRSNNKNYLAWYQHKAGQPPKLLIYWASTRESGVPERFSGSGSRTDFTLTINGLQAEDVAVYYCQQYYNPPWTFGQGTKVEIK |  |
|  | Ab7961/293i (antibody, V domains shown) VH: LVESGGGVVQPGKSLRLSCVASGFTFSSYGMHWVRQAPGKGLEWVAVMSFDGKTKYYADSVKGRFTISRDNPKNTLYLQMNSLRSEDTAVYYCAKGGAAAAVFDSWGQGILLTVSS VL: MTQSPNSLAVSLGGRATINCKTSQSILYRSNNKNYLAWYQHKSGQPPKLLIYWASTRESGVPDRFSGSGSRTDFTLTISGLQAEDVAVYYCQQYYNPPWTFGQGTKVEIK | percent of binding to the natural peptide (AUC) [2]: 4% |
| 34 | Ab7979 (antibody, V domains shown) VH: LVESGGGVVQPGKSLRLSCVASGFTFSTYGMHWVRQAPGKGLEWVAVMSFDGKTKYYADSVKGRFTISRDNPKNTLYLQMNSLRSEDTAVYYCAKGGAAAAVFDSWGQGILLTVSS VL: MTQSPNSLAVSLGGRATINCKTSQSILYRSNNKNYLAWYQHKPGQPPKLLIYWASTRESRVPDRFSGSGSRTDFTLTISGLQAEDVAVYYCQQYYNPPWTFGQGTKVEIK |  |
|  | Ab7955 (antibody, V domains shown) VH: LVESGGGVVRPGRSLRLSCVASGFTFNAYGMHWVRQGPGKGLEWLAVISYEGKTVYYADSVKDRFTISRDNSRNTVSLHLNNLRGEDTAVYYCAKGSASAAVLQHWGQGTLVSVTS VL: MTQSPGSLAVSLGSRATINCKSSRSLLYRSNNKNYLAWYQQKPGQSPRLLIYWASSRESGVPDRFSGGGSGTSFTLTISSLQAEDVAVYYCQQYFNPPWTFGQGTKVEIK | percent of binding to the natural peptide (AUC) [3]: 8% |
